The source of these data is publication PMC6691507 (Biochemistry, 2019).

The target in this test is PAD2 D177A mutant, purified recombinant (human (from the printed UniProt entry …, UniProt Q9Y2J8 1-665, D177A)). Nature of the test: co-IP.
PAD2 D177A mutant, purified recombinant (human, sequence (Q9Y2J8 whole entry D177A): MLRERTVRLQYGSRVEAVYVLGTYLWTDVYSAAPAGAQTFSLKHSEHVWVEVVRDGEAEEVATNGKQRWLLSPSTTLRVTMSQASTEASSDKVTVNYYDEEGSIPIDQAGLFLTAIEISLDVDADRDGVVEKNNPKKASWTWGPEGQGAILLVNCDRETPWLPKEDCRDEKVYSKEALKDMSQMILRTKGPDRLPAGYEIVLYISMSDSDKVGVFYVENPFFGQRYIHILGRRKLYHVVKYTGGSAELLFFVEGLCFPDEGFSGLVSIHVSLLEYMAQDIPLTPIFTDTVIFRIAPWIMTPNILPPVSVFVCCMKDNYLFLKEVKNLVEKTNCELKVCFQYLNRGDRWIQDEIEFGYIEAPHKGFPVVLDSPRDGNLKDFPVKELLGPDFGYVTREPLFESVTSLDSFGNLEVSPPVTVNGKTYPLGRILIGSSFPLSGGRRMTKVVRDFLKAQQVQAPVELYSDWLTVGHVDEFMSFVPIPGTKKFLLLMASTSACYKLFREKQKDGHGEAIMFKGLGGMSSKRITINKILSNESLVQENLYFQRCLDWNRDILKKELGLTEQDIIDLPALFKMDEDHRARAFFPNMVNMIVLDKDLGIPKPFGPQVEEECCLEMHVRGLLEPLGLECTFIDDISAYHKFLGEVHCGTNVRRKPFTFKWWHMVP

B1: Annexin A5 (ANXA5), purified recombinant (natural protein, UniProt P08758 1-320, looked up)
chain: MAQVLRGTVTDFPGFDERADAETLRKAMKGLGTDEESILTLLTSRSNAQRQEISAAFKTLFGRDLLDDLKSELTGKFEKLIVALMKPSRLYDAYELKHALKGAGTNEKVLTEIIASRTPEELRAIKQVYEEEYGSSLEDDVVGDTSGYYQRMLVVLLQANRDPDAGIDEAQVEQDAQALFQAGELKWGTDEEKFITIFGTRSVSHLRKVFDKYMTISGFQIEETIDRETSGNLEQLLLAVVKSIRSIPAYLAETLYYAMKGAGTDDHTLIRVMVSRSEIDLFNIRKEFRKNFATSLYSMIKGDTSGDYKKALLLLCGEDD
Take B1: the binding result is listed as “binds”.
